Biological target: Gal4p BD fused with murine p53 (pGBKT7-53) (murine)
Test: two-hybrid

Work on “Gal4 AD fused with the SV40 large T-antigen (pGADT7-T) (natural protein)” yielded a mean GFP fluorescence at 72 hrs of 156, a mean GFP fluorescence at 96 hrs of 116 and a percent GFP positive cells of 69.9%. The percent GFP positive cells at 30-48 hrs was 3 to 5%, the percent GFP positive cells at 72 hrs was 23.8% and the percent GFP positive cells at 96 hrs was 23.5%.

Reference: article PMC3250062
